The text below walks through data of patent publication US20180163176A1 (NANTKWEST, published 2018).

For this assay, the target named is CD33 (UniProt P20138 18-364, limits assumed). Description: cell-based or functional assay.
CD33, sequence (P20138 18-364 limits assumed): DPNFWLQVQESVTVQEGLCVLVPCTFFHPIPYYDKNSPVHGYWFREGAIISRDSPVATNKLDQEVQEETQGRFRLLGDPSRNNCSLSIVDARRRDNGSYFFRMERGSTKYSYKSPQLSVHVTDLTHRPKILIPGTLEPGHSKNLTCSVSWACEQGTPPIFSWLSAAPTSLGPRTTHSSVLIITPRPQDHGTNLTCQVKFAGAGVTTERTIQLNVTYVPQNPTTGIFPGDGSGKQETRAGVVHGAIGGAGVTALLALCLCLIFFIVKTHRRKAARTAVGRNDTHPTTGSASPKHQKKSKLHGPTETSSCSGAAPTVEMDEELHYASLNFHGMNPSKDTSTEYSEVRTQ

B1: CD33-CAR (other)
chain: MDWIWRILFLVGAATGAHSAQPADIQMTQSPSSLSASVGDRVTITCRASESVDNYGISFMNWFQQKPGKAPKLLIYAASNQGSGVPSRFSGSGSGTDFTLTISSLQPDDFATYYCQQSKEVPWTFGQGTKVEIKGGGGSGGGGSGGGGSQVQLVQSGAEVKKPGSSVKVSCKASGYTFTDYNMHWVRQAPGQGLEWIGYIYPYNGGTGYNQKFKSKATITADESTNTAYMELSSLRSEDTAVYYCARGRPAMDYWGQGTLVTVSSALSNSIMYFSHFVPVFLPAKPTTTPAPRPPTPAPTIASQPLSLRPEASRPAAGGAVHTRGLDPKLCYLLDGILFIYGVILTALFLRVKFSRSADAPAYQQGQNQLYNELNLGRREEYDVLDKRRGRDPEMGGKPRRKNPQEGLYNELQKDKMAEAYSEIGMKGERRRGKGHDGLYQGLSTATKDTYDALHMQALPPR
Take B1: the “cytotoxicity against aNK resistant cell lines at 24 hours (flow cytometry assay)” value is more than 80%.
